Data taken from PMC12858348, “Structural basis underlying the autoinhibition of the formin FHOD1 and its phosphorylation-dependent activation” (The Journal of Biological Chemistry, 2025).

Biological target: T1, His-tagged FHOD1-N3 (1–360) (human, UniProt Q9Y613 1-360)
T1 construct: human FHOD1, residues 1-360 (GBD and FH3 domains), from human FHOD1 cDNA in pProEX-HTb; also called FHOD1-N-WT; N-terminal region
T1 sequence (looked up): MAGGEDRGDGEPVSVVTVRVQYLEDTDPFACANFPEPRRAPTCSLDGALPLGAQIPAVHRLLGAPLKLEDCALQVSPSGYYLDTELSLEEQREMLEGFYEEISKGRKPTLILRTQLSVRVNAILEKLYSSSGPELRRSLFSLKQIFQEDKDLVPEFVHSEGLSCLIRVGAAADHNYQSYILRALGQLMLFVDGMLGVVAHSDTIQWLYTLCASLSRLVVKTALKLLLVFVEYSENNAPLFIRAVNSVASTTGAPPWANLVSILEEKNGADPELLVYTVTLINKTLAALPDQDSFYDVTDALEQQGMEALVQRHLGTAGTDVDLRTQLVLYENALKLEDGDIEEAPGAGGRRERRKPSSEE
Assay: pull-down; 20 μg GST fusion protein (GST-DAD 1.25 μM) and 20 μg His-tagged protein (His-FHOD1-N3 1.0 μM) in 500 μl PBS pH 7.4 with 0.1% Triton X-100; glutathione-Sepharose 4B, 1 h at 4 °C; three washes; eluted with 10 mM glutathione; SDS-PAGE, CBB staining, densitometry
Conditions: both partners purified

B1: GST-fused FHOD1–DAD (1081–1145) (domain or fragment, human, UniProt Q9Y613 1081-1145, looked up)
chain: MPTVGPSTASPEEPPGSSLPSDTSDEIMDLLVQSVTKSSPRALAARERKRSRGNRKSLRRTLKSG
notes: human FHOD1, residues 1081-1145 (diaphanous autoregulatory domain), in pGEX-6P; also called DAD-WT; GST-DAD; source: E. coli BL21, purified (glutathione-Sepharose-4B)
  binding result: binds

B2: GST-fused FHOD1–DAD (1081–1145) M1108A (domain or fragment, human, UniProt Q9Y613 1081-1145, looked up)
chain: MPTVGPSTASPEEPPGSSLPSDTSDEIADLLVQSVTKSSPRALAARERKRSRGNRKSLRRTLKSG
notes: human FHOD1, residues 1081-1145 (DAD), M1108A in the core motif; also called DAD-M1108A; source: E. coli BL21, purified (glutathione-Sepharose-4B)
  binding result: binds
